Sequences and labels used below:
B1: SHI1 fused with the N-terminal portion of the luciferase [Arabidopsis thaliana] / FRY2/CPL1 fused with the C-terminal part of the luciferase [Arabidopsis thaliana] (parent complex)
chain 1: MERSRSKRNYHYDQDYDGDSMPRSKPRYNNNYHFGGGGGGNNRYRGGGGGGGGNGRPSKSHPETMATTTYRILCHDAKAGGVIGKSGTIIKSIRQHTGAWINVHELVPGDAERIIEISDNRRRDPDGRMPSFSPAQEALFSVHDRILESEAQFGYGGPPPEEEEDYGGVRPGGGRVVTRLVVSRMHVGCLLGKGGKIIEQMRIETKTHIRILPRESNLPRCVSLSEEIVQIVGELNAVKNALAIVSSRLRESQHRDRSNFQGRSHSPERSFAAAGDDYMPQLRRQSSDRFPRGNFRNNNFSSRQSNYAEEAPAVPVGENVYSEELVFQILCPADKIVRVVGESQGIIDLLQNEIGVDVRVSDPVAGSDEQIITISSEEAPDDPFFPAQEALLHIQTQIIDLIPDKDNLITTRLLVPSRDSICLEGKAGSVSEISRLTGTSVQILAREEIPRCASINDVVIQITGEIRAAREALVELTLLLRSHMFKELSQKETPPASTSTTGPLEGVAGVMEVASSNNTIQSREGPTSSNLNLQQVSTILPQFKEGFGSVAKAGESEHREEVPVTTSRMAVPLVTRSTLEVVLPEAVVPKLVTKSRNKLAQISEWSGASVTIVEDRPEETQNIIRISGTPEQAERAQSLLQGFILSIQEDGP
chain 2: MYSNNRVEVFHGDGRLGELEIYPSRELNQQQDDVMKQRKKKQREVMELAKMGIRISHFSQSGERCPPLAILTTISSCGLCFKLEASPSPAQESLSLFYSSCLRDNKTAVMLLGGEELHLVAMYSENIKNDRPCFWAFSVAPGIYDSCLVMLNLRCLGIVFDLDETLVVANTMRSFEDKIDGFQRRINNEMDPQRLAVIVAEMKRYQDDKNLLKQYIESDQVVENGEVIKVQSEIVPALSDNHQPLVRPLIRLQEKNIILTRINPMIRDTSVLVRMRPSWEELRSYLTAKGRKRFEVYVCTMAERDYALEMWRLLDPEGNLINTNDLLARIVCVKSGFKKSLFNVFLDGTCHPKMALVIDDRLKVWDEKDQPRVHVVPAFAPYYSPQAEAAATPVLCVARNVACGVRGGFFRDFDDSLLPRIAEISYENDAEDIPSPPDVSHYLVSEDDTSGLNGNKDPLSFDGMADTEVERRLKEAISASSAVLPAANIDPRIAAPVQFPMASASSVSVPVPVQVVQQAIQPSAMAFPSIPFQQPQQPTSIAKHLVPSEPSLQSSPAREEGEVPESELDPDTRRRLLILQHGQDTRDPAPSEPSFPQRPPVQAPPSHVQSRNGWFPVEEEMDPAQIRRAVSKEYPLDSEMIHMEKHRPRHPSFFSKIDNSTQSDRMLHENRRPPKESLRRDEQLRSNNNLPDSHPFYGEDASWNQSSSRNSDLDFLPERSVSATETSADVLHGIAIKCGAKVEYKPSLVSSTDLRFSVEAWLSNQKIGEGIGKSRREALHKAAEASIQNLADGYMRANGDPGPSHRDATPFTNENISMGNANALNNQPFARDETALPVSSRPTDPRLEGSMRHTGSITALRELCASEGLEMAFQSQRQLPSDMVHRDELHAQVEIDGRVVGEGVGSTWDEARMQAAERALSSVRSMLGQPLHKRQGSPRSFGGMSNKRLKPDFQRSLQRMPSSGRYS

The variants in this assay derive from B1. As to the kind of experiment: split-luciferase complementation assay; co-expressed in Arabidopsis protoplasts; means ± SE (n = 3); parent: 160; read off a plot.
Regarding chain 1 E389K, the response was around 110 RLU.
